Measurements from patent publication US12358963B2, “Regenerative polypeptides and uses thereof” (Juvena Therapeutics, Inc., priority 2019, dated 2025).

Columns and labels:
DM1 human myoblast = test: Gene expression fold change in DM1 human myoblast; type: cell-based; conditions: 48h; BMP7 50 ng/mL, Butyrate 100 nM, IGF2 200 ng/mL; FM 1.000
mouse myoblast cells = test: Mouse myoblast proliferation assay (EdU); type: cell-based; conditions: for % EdU / Ave. + EdU Count: 48h; for Ave. + EdU Count: FM 165
Method: (§1) FIG. 5A) Bar graph quantitation of % EdU+ mouse myoblast in response to BMP7. Myoblast were cultured 48h in the presence of BMP7 at indicated dose. Fresh media and BMP7 was added every 24h, followed by 2 hour EdU pulse and fixation. Mean∓S.D. Significant p-values (Vehicle˜BMP7 0.025 ug/mL: 1.21E-07, Vehicle˜BMP7 0.075 ug/mL: 8.05E-07, Vehicle˜BMP7 0.2255 ug/mL: 3.37E-03, Vehicle˜BMP7 0.9 ug/mL: 4.99E-02). FIG. 5B) Bar graph quantitation of % EdU+ human myoblast (person) in response to BMP7. Myoblast were cultured 72h in the presence of BMP7 at indicated dose. Cells were pulsed with EdU for 4 hours before fixation. Mean∓S.D. Significant p-values (Vehicle˜BMP7 1.56 ng/mL: 0.04). (*p<0.05 by Welch's One-Tailed T-test, n=2)
FIG. 6A) Bar graph of % EdU+ mouse myoblast cells compared to vehicle. Mouse myoblast were cultured 48h in the presence of indicated factors, followed by a 2 hour EdU pulse prior to fixation. Mean∓S.D. Significant p-values (FM˜BMP7: 0.008 ug/mL: 3.17E-02, FM˜Leucine: 300 uM BMP7: 0.008 ug/mL: 2.77E-03, FM˜Leucine: 100 uM BMP7: 0.008 ug/mL: 3.72E-05, FM˜Leucine: 900 uM BMP7: 0.008 ug/mL: 2.52E-03). (*p<0.05 by One-Way ANOVA Tukey Honest Significant Difference, n=2-6)
FIG. 7A: Bar graph of % EdU+ mouse myoblast cells compared to vehicle. Mouse myoblast were cultured 48h in the presence of indicated factors. EdU pulse and fixation. Mean∓S.D. (*p<0.05 by Student's One-Tailed T-Test of increased activity, n=2-6)
FIG. 10A) The suspension CHO cells were transiently transfected with either the empty control plasmid or the FGF17-hFcm encoding plasmid. After four days, the culture supernatants were collected and added into the culture of mouse myoblast cells for 48 hours, followed by a 2 hour EdU pulse prior to fixation. […] FIG. 10B) The suspension CHO cells were transiently transfected with the FGF17-hFcm encoding plasmid. After four days, the culture supernatants were collected and FGF17-hFcm was affinity-purified by Protein A membrane column. The purified FGF17-hFcm was added into the culture of mouse myoblast cells for 48 hours, followed by a 2 hour EdU pulse and fixation.
(§2) FIG. 11A: SDS-PAGE of culture supernatants from CHO cells transiently transfected with FGF17-hFcm or its mutants encoding plasmids (FGF17d181-216-hFcm, FGF17d204-216-hFcm, FGF17R204QK207Q-hFcm). The expressed FGF17-hFcm proteins and the mutant proteins were indicated by the white arrowheads. FIG. 11B) The culture supernatants from CHO cells transiently transfected with different FGF17 encoding plasmids were added into the culture of mouse myoblast cells for 48 hours followed by 2 hour EdU pulse and fixation.
as §2, with “12A)” for “11A:”, “(FGF17d197-216-hFcm, FGF17K191AK193AS200A-hFcm).” for “(FGF17d181-216-hFcm, FGF17d204-216-hFcm, FGF17R204QK207Q-hFcm).”, “12B)” for “11B)”, “hours,” for “hours”
(§3) FIG. 14A: Bar graph of % EdU+ mouse myoblast cells compared to vehicle. Myoblast were cultured 48h in the presence of indicated factors. Fresh media and factors were added every 24h, followed by 2 hour EdU pulse and fixation. Mean∓S.D. Table quantitation of % EdU and p-values (*p<0.05 by One-Way ANOVA Tukey Honest Significant Difference, n=2-6)
as §3, with “15A:” for “14A:”, “p-values shown.” for “p-values”, “Student's One-Tailed T-Test of increased activity,” for “One-Way ANOVA Tukey Honest Significant Difference,”
Bar graph of total EdU+ mouse myoblast cells compared per condition. Myoblast were cultured 48h in the presence of indicated factors. […]

human myoblast = test: Human myoblast proliferation (nuclei counts, EdU counts); type: cell-based; conditions: 72h; for Nuclei Counts: vehicle 2083.5
Method: as §1
Bar graph of total EdU+ mouse myoblast cells compared per condition. Myoblast were cultured 48h in the presence of indicated factors. Fresh media and factors were added every 24h, followed by 2 hour EdU pulse and fixation. Mean∓Standard Deviation(SD) Table quantitation of EdU counts per field and p-values for mouse assay (*p<0.05 by Student's One-Tailed T-Test of increased activity, n=3-6, Synergy values <1 are evidence of effect). Bar graph of total EdU+ human myoblast cells per condition. Myoblast were cultured 72h in the presence of indicated factors, followed by 4 hour EdU pulse and fixation. Fresh media and factors were added every 24h. Mean∓Standard Deviation(SD). Table quantitation of +EdU counts and p-values for human assay. (*p<0.05 by Student's One-Tailed T-Test of increased activity, n=3-6, Synergy values <1 are evidence of effect)

human chondrocyte = test: Human chondrocyte proliferation (% EdU+); type: cell-based; conditions: 48h, vehicle 0.744
Method: Chondrocytes were cultured for 48h in the presence of FGF17 at indicated dose. FGF18 was added at 0.1 ug/mL as a positive control. Fresh media and FGF17 was added every 24h. Table of % EdU+ chondrocyte and p-values depicted. Mean∓S.D. (*p<0.05 by Tukey Honest Significant Difference T-test, n=2-3)

[1] = test system: mouse myoblast cell lines; test: Myogenic gene RNA expression in mouse myoblasts by real-time qPCR; type: cell-based; conditions: 48h in fusion media
Method: (§4) Myogenic gene RNA expression (fold change to FM) in response to vehicle (FM) in mouse myoblast cell lines monitored by real-time qPCR. Myoblast were cultured 48h in fusion media. Mean±SD. n=3. (Y,Z) Differential induction of myogenic gene expression by FGF17 in human myoblast myoblasts. Quantitation table of myogenic gene RNA expression (fold change to FM-fusion media (DMEM+2% horse serum)) in response to FM or rh-FGF17 in aged human myoblast cell lines by real-time qPCR. Myoblast were cultured (B) 48 hours or (C) 72 hours in FM. Mean∓SD. n=3.
(§5) RNA was isolated from each well (RNeasy Mini Kit, Qiagen) and cDNA was obtained by reverse-transcription (High Capacity Reverse Transcription Kit, Thermo Fisher Scientific). Real-time quantitative PCR was performed using QuantStudio3 (Thermo Fisher).

[2] = test system: aged human myoblast cell lines; test: Myogenic gene RNA expression in aged human myoblasts by real-time qPCR; type: cell-based
Method: as §4, §5
Aged human myoblasts were cultured in well plates. […] Cells that had been cultured with IGF2 had increases in levels of MYOG at 48 hours and levels of MYOD at 72 hours.

78 weeks old mice = test: BaCl2 muscle injury in old mice, intramuscular FGF17; type: in vivo, mouse; conditions: FGF17 500 ng/mL intramuscular 2h and 48h after BaCl2 injury
Method: FIG. 16A) Experiment overview. Intramuscular injection of 1.2% of BaCl2 (7 ul/TA) was used to generate chemical injury in the TAs of 78 weeks old mice. FGF17 (500 ng/mL) was administered via intramuscular injection after 2h and 48h of muscle injury. FIG. 16B) Quantification of the regenerative index calculated as the number of newly regenerated fibers per mm 2 of injury area. Regenerated fibers were identified as fibers with central nuclei,****p<0.0001 (unpaired t-test). FIG. 16C) Histogram showing the fibrotic index calculated as the percentage of the fibrotic area. *p=0.0186 (unpaired t-test).

12 weeks old mice = test: Dexamethasone induced muscle atrophy, FGF17; type: in vivo, mouse; conditions: Dexamethasone 25 mg/kg i.p. 20 days; FGF17 0.5 mg/kg subcutaneous
Method: FIG. 17A) Experiment overview and groups. […] Muscle weight was assessed on Day 21. Forelimb grip strength and both limb grip strength were measured on Day 7, 13 and 21 FIG. 17B) TAs muscle weight over initial body weight shown as the percentage change from vehicle. ***p=0.0005, *p=0.0499. […] One way Anova corrected for multiple comparisons using Tukey method was used to compare data.
The experimental design is C57BL/6J male mice with daily administration of Vehicle, N=7; dexamethasone (25 mg/kg i.p.), N=6, or dexamethasone+treatment article, N=6, for 20 days. This design can be used to test any single factor identified and validated in in vitro assays or complex mixtures of 2 or more factors.
On day 21, animals are sacrificed, and animal weight recorded. 0.5 ml of blood is collected via cardiac puncture and processed to plasma for storage of plasma samples at −80° C. The animals are perfused with 1×PBS. After carefully dissecting the skin from the GA/TA muscles of each hind leg, photos are taken, followed by excision of exclusively the GA or TA muscle, weighing the muscles, then flash freezing in isopentane at −80 C.

B1: BMP7: BMP7 polypeptide, BMP receptor agonist (protein, UniProt P18075 293-431, looked up)
Bone morphogenetic protein 7: STGSKQRSQNRSKTPKNQEALRMANVAENSSSDQRQACKKHELYVSFRDLGWQDWIIAPEGYAAYYCEGECAFPLNSYMNATNHAIVQTLVHFINPETVPKPCCAPTQLNAISVLYFDDSSNVILKKYRNMVVRACGCH
MYF5 expression fold change compared to FM (DM1 human myoblast): 0.709 | MYOD1 expression fold change compared to FM (DM1 human myoblast): 0.709 | MYOG expression fold change compared to FM (DM1 human myoblast): 0.361 | % EdU (mouse myoblast cells; BMP7 0.025 ug/mL, vehicle 10.56): 18.08% | % EdU (mouse myoblast cells; BMP7 0.075 ug/mL, vehicle 10.56): 17.53% | % EdU (mouse myoblast cells; BMP7 0.2255 ug/mL, vehicle 10.56): 14.93% | % EdU (mouse myoblast cells; BMP7 0.45 ug/mL, vehicle 10.56): 12.93% | % EdU (mouse myoblast cells; BMP7 0.9 ug/mL, vehicle 10.56): 13.91% | % EdU (mouse myoblast cells; BMP7 1.8 ug/mL, vehicle 10.56): 10.37% | Nuclei Counts (human myoblast; BMP7 0.78 ng/mL, donor): 2144.5 | Nuclei Counts (human myoblast; BMP7 1.56 ng/mL): 2552.5 | Nuclei Counts (human myoblast; BMP7 3.12 ng/mL): 2408 | Nuclei Counts (human myoblast; BMP7 6.25 ng/mL): 2422.5 | Nuclei Counts (human myoblast; BMP7 12.5 ng/mL): 2706 | Nuclei Counts (human myoblast; BMP7 25 ng/mL): 2509

B2: FGF18: FGF18 added at 0.1 ug/mL as a positive control (protein, UniProt O76093 28-207, looked up)
Fibroblast growth factor 18: EENVDFRIHVENQTRARDDVSRKQLRLYQLYSRTSGKHIQVLGRRISARGEDGDKYAQLLVETDTFGSQVRIKGKETEFYLCMNRKGKLVGKPDGTSKECVFIEKVLENNYTALMSAKYSGWYVGFTKKGRPRKGPKTRENQQDVHFMKRYPKGQPELQKPFKYTTVTKRSRRIRPTHPA
% EdU (human chondrocyte; 0.1 ug/mL): 6.039%

B3: FGF17: FGF17 polypeptide, FGFR agonist (protein, listed as Homo sapiens)
chain: TQGENHPSPNFNQYVRDQGAMTDQLSRRQIREYQLYSRTSGKHVQVTGRRISATAEDGNKFAKLIVETDTFGSRVRIKGAESEKYICMNKRGKLIGKPSGKSKDCVFTEIVLENNYTAFQNARHEGWFMAFTRQGRPRQASRSRQNQREAHFIKRLYQGQLPFPNHAEKQKQFEFVGSAPTRRTKRTRRPQPLT
Myf5 RNA expression (fold change to FM), Mean ([1]; FM 1.002): 1.376 | Myod1 RNA expression (fold change to FM), Mean ([1]; FM 1.002): 1.230 | Pax7 RNA expression (fold change to FM), Mean ([1]; FM 1.011): 6.118 | MYOD1 RNA expression (fold change to FM) ([2]; 48 hr, FM 1.001): 0.604 | MYOG RNA expression (fold change to FM) ([2]; 48 hr, FM 1.013): 2.353 | MYF5 RNA expression (fold change to FM) ([2]; 48 hr, FM 1.04): 1.922 | MYF5 RNA expression (fold change to FM) ([2]; 72 hr, FM 1.023): 0.499 | MYOD1 RNA expression (fold change to FM) ([2]; 72 hr, FM 1.055): 1.627 | MYOG RNA expression (fold change to FM) ([2]; 72 hr, FM 1.092): 13.124 | % EdU (mouse myoblast cells; FGF17 0.0062 ug/mL, vehicle 3.14): 4.81% | Ave. + EdU Count (mouse myoblast cells; FGF17 0.01 ug/mL): 476 | % EdU (mouse myoblast cells; FGF17 0.0125 ug/mL, vehicle 3.14): 3.02% | % Edu (mouse myoblast cells; FGF17 0.025 ug/mL, 48h (HA experiment), FM 11.162): 17.870% | % EdU (mouse myoblast cells; FGF17 0.025 ug/mL, vehicle 3.14): 3.85% | Ave. + EdU Count (mouse myoblast cells; FGF17 0.1 ug/mL): 1618 | Fibrotic index (78 weeks old mice): reducing fibrosis | Muscle regeneration (regenerative index) (78 weeks old mice): Promoted the Regeneration of Muscle | % EdU (human chondrocyte; 0.1 ug/mL): 4.675% | % EdU (human chondrocyte; 0.20 ug/mL): 9.085% | % EdU (human chondrocyte; 0.40 ug/mL): 16.773% | Muscle atrophy (muscle weight, forelimb and both limb force) (12 weeks old mice): Protects Against Dexamethasone Induced Muscle Atrophy | Ave. + EdU Counts (human myoblast; FGF17 0.1 ug/mL, FM 205): 349
